Consider 1 molecule from US7172865B2, “Rapid and sensitive assay for the detection and quantification of coregulators of nucleic acid binding factors” (Saint Louis University, priority 2001, dated 2007).

Test [1] relates to CAP6/CAP1 and CAP2/CAP3 nucleic acid duplexes. The test can be described thus: CAP assay with coumarin donor and fluorescein acceptor. To be noted: 0 to 150 nM CAP, excitation 433 nm. It counts as binding, E. coli. From the text: Amino-Modifier C2 dT (Glen Research, Sterling, Va.) was incorporated into positions that are equivalent to the positions at which fluorescein-dT and dabcyl-dT has been used previously in CAP2 and CAP4 oligonucleotides, respectively. Amino-Modifier C2 dT contains a reactive aliphatic amino group that can be used to covalently attach any amino-reactive fluorescence probe. CAP5 (SEQ ID NO:7) and CAP6 (SEQ ID NO:8) oligonucleotides were modified with 7-diethylaminocoumarin-3-carboxylic acid, succinimidyl ester. This fluorochrome is excited at 433 nm and the maximum emission occurs at 475 nm providing the possibility of testing the assay with different emission colors. […]
In a second experiment (FIG. 9), the pair of CAP6/CAP1 and CAP2/CAP3 nucleic acid duplexes were tested for the performance in CAP assay. In this assay format, the 7-diethylaminocoumarin-3-carboxylic acid present in the CAP6/CAP1 duplex functioned as a fluorescence donor and the fluorescein present in the CAP2/CAP3 duplex functioned as an acceptor. […] Also, as shown in the inset of FIG. 9, the ratio between the fluorescence intensities at 520 nm and 475 nm may be used to determine the concentration of nucleic acid binding proteins. […]

The subject of test [2] is CAP nucleic acid binding element (CAP10/CAP11 and CAP12/CAP13). The test can be described thus: multiwell plate assay, immobilized CAP10/CAP11 and biotin-labeled CAP12/CAP13, streptavidin-peroxidase detection. Particulars: for Absorbance (450 nm), + CAP: 200 μM cAMP. Here is the method: To illustrate the extensive flexibility of the invention in terms of detection mode, an experiment following the general design depicted in FIG. 1E was performed. The following oligonucleotides, which when fully assembled contain a complete CAP nucleic acid binding element, were synthesized (X=amino-dT; B=biotin):
The CAP10 oligonucleotide was hybridized with the CAP11 oligonucleotide to generate the first nucleic acid component. The CAP 12 oligonucleotide was hybridized with the CAP13 oligonucleotide to generate the second nucleic acid component. For hybridization, appropriate oligonucleotides were (1) mixed at 10 μM concentration in 100 μl of buffer (500 mM Na2HPO4, pH 8.6, 1 mM EDTA, in the case of CAP10/CAP11 oligonucleotides; and 20 mM Tris, pH 8.0, 100 mM NaCl, 10 μM EDTA, in the case of CAP12/CAP13 oligonucleotides), (2) heated for 1 min at 95° C., and then (3) cooled to 25° C for 1 hr. The first nucleic acid component (CAP10/CAP11 half-site duplex) was covalently attached to the wells of a N-oxysuccinimide-activated 96 well plate (DNA-BIND, Corning, Acton, Mass.) by incubating 200 μl of first nucleic acid component (at 100 nM) per well in 500 mM Na2HPO4 (pH 8.6), 1 mM EDTA buffer for 1 hr followed by washing with 50 mM Tris (pH 8.0), 100 mM NaCl, 1 mM EDTA containing 0.1 mg/ml BSA. […] After incubation for 1 hr at room temperature, the wells were washed twice with the buffer followed with the addition of streptavidin-linked horseradish peroxidase (Pierce, Rockford, Ill.) at the dilution recommended by the manufacturer. After 30 min of incubation, the wells were washed twice with buffer followed with the addition of 100 μl of Turbo-TMB™ peroxidase substrate solution (Pierce, Rockford, Ill.). […] The absorbance at 450 nm of the sample and control wells were read using a standard microplate reader.

B1: CAP: bacterial transcription activator from E. coli which binds DNA in a sequence specific, cAMP-dependent manner (protein, UniProt P0ACJ8 2-210, looked up)
DNA-binding transcriptional …: VLGKPQTDPTLEWFLSHCHIHKYPSKSTLIHQGEKAETLYYIVKGSVAVLIKDEEGKEMILSYLNQGDFIGELGLFEEGQERSAWVRAKTACEVAEISYKKFRQLIQVNPDILMRLSAQMARRLQVTSEKVGNLAFLDVTGRIAQTLLNLAKQPDAMTHPDGMQIKITRQEIGQIVGCSRETVGRILKMLEDQNLISAHGKTIVVYGTR
Turning to B1, the “change of emission peaks” value in test [1] is “pronounced quenching of the peak at 475 nm and a pronounced enhancement of the peak at 520 nm”. In test [2] (10 nM CAP12/CAP13), the “increase in absorbance signal compared to controls without CAP or cAMP” value is “approximately 3 fold”. Further, the “Absorbance (450 nm), + CAP” value in test [2] (10 nM CAP12/CAP13, 250 nM CAP) was found to be 0.7308; in test [2] (20 nM CAP12/CAP13, 250 nM CAP), 0.8584.
